Source: patent publication US9314532B2, “Drug delivery vehicle” (University of North Texas Health Science Center, priority 2012, dated 2016)
Ends that are not written are not given here.

Columns and labels:
[1] = paclitaxel encapsulation efficiency into myristoyl peptide nanoparticles (3H-paclitaxel); format: physicochemical; conditions: after centrifugation at 5,000 RPM for 5 minutes
Procedure: Paclitaxel encapsulation efficiency into myristoyl peptide nanoparticles based on measurements of 3H-paclitaxel is shown in FIG. 8. […] In order to clarify the preparations, the samples were centrifuged at 5,000 RPM for 5 minutes.

[2] = mRNA encapsulation, particle size; format: physicochemical; conditions: mRNA/phospholipid particles upon addition of the MYR-5A peptide
Text: In an embodiment of the present invention, ˜2 kb mRNA was encapsulated to improve its functionality and bioavailability. mRNA was combined with phospholipid in the presence of detergent and particles of approximately 3 μm diameter were obtained. […] The smaller particle is suitable for efficient delivery of the mRNA to target cells and for therapeutic applications.

EKLKALLEKLLAKLKELL (also: myristoyl, place not given here) [compound 39877]
initial amount of paclitaxel retained [1]: 60%

DWLKAFYDKVAEKLKEAFPDWAKAAYDKAAEKAKEAA (also: myristoyl, place not given here) [MYR-5A, control peptide]
particle size [2]: ~500 nm
